Assays:
[1] = test system: Caspase-8; assay: Caspase-8 biosensors transfected into HeLa cells, induction with TRAIL; type: cell-based; details: 1 μg/mL TRAIL, 37° C.
Excerpt: To evaluate whether the mutant thermostable luciferase biosensors of the present invention can be used to detect Caspase-8 activity in cells, biosensors were generated that contained the Caspase-8 cleavage site, LETDG (SEQ ID NO:15). Two different biosensors, TL-CP358-Caspase-8 and TL-CP233-Caspase-8 were used. As controls, the firefly (Photinus pyralis; Ppy) luciferase biosensors FF-CP234-Caspase-8 (M/Ppy residues 234-544/LETDG/Ppy residues 4-230/V), FF-CP359-Caspase-8 (M/Ppy residues 359-544/LETDG/Ppy residues 4-355/V), and TL-CP358-DEVD.
All biosensors were transfected into HeLa cells. Cells were plated at a (10,000/well) into a 96-well tissue culture plate. […]
After overnight incubation, the media was removed from the cells and replaced with CO2 Independent Media (Invitrogen Cat. No. 18045088) with 2 mM Luciferin EF (Promega Cat. No. E6551). Cells were pre-equilibrated with Luciferin EF for 2 hrs in a Varioskan luminometer with bioluminescence readings taken every 20 min. […] The cells were again incubated at 37° C. in a Varioskan luminometer for 500+ min with bioluminescence measured every 20 min.
FIGS. 5 and 7 identify the kinetic profiles of Caspase 8 activation by TRAIL over time at 37° C. […] Fold induction of activation was calculated by dividing the signal of samples with TRAIL over the signals without trail at a given time point. […]

[2] = test system: caspase-3; assay: CBS-HT (cell-free expressed) immobilized to HaloLink resin, caspase-3 cleavage reaction; type: biochemical
Experimental: For immobilization to a resin (FIG. 18A), HaloLink resin (25% slurry, Promega Cat. No. G1912) was first equilibrated with HTPB Buffer (50 mM HEPES (pH 7.5), 150 mM NaCl, 1 mM DTT and 0.5 mM EDTA). Resin from one volume of slurry was collected by centrifugation (5 min at 1000×g), and the storage buffer was removed. The resin pellet was re-suspended in 2 volumes of HTPB and mixed. This process was repeated for a total of three HTPB washes. 100 μL of the CBS-HT fusion from Example XI (cell free expression reaction) was mixed with 25 μL washed resin (50% slurry in HTPB) and incubated overnight with mixing at 4° C. Incubation was continued at ambient temperature for 2 hrs. After incubation, the resin was washed to remove un-bound CBS. The resin was split into two 50 μl aliquots, and each aliquot was washed 3 times with HTPB. The final resin pellets were re-suspended in 50 μL HTPB.
For the CBS caspase-3 cleavage reaction, 20 μl of the washed resin was mixed with 20 μL of either E. coli lysate containing caspase-3 or C(3) Lysis Buffer (as in Example XI) and incubated for 30 min at ambient temperature. 60 μl HEPES pH 7.5 was added to the samples, followed by the addition of 100 μl Bright-Glo Assay Reagent. Luminescence was detected as previously described (Table 8 and FIG. 19).

[3] = test system: caspase-3; assay: CBS-HT (cell-free expressed) immobilized to HaloTag ligand microtiter plate, caspase-3 cleavage; type: biochemical
Experimental: For immobilization to a plate (FIG. 18B), a microtiter plate was prepared containing HaloTag® ligand for immobilizing the CBS-HT fusion protein. Briefly, bicarbonate buffer pH 8.5 (100 μL), containing amine-PEG 2000-Cl alkane HaloTag® ligand (0.25 mM (final concentration; PBI 3961 and methoxy-PEG-NH2 (0.75 mM final concentration) were added to wells of a NHS microtiter plate and incubated for 1 hr at room temperature. The wells were then washed 3 times with PBS containing 0.05% Tween-20. After washing, 50 mM ethanolamine was added, and the plates were incubated for 30 min at room temperature and washed again 3 times with PBS containing 0.05% Tween-20. The plate was then stored at 4° C. with PBS containing 0.05% Tween-20 in each well. For the assay, the wells were washed 3 times with 200 μl HPTB. 50 μl CBS-HT cell-free expression reaction (Example XI) was added to the wells, and incubated overnight at 4° C. Following incubation, the plate was washed 3 times with 200 μl PBSI (1×PBS with 0.05% IGEPAL). 100 μL E. coli lysate containing caspase-3 or C(3) lysis buffer (described above) were added and the plate was incubated for 60 min with mixing at room temperature. The wells were then washed with 100 μl PBSI. 100 μL HEPES pH 7.5 and 100 μl Bright-Glo Assay Reagent were added and luminescence was detected as previously described (Table 9).

[4] = test system: caspase-3; assay: Cell-free (wheat germ) expressed CBS-HT, caspase-3 cleavage reaction, luminescence; type: biochemical; details: WG(HY), MIN. 5
Experimental: The CBS variant 1A5 was cloned into the vector pFN19K HaloTag® (Promega Cat. No. G1841) to generate a CBS-HaloTag® (CBS-HT) fusion protein (SEQ ID NOs:71 and 72). 20 μl (8 μg) of the CBS-HT vector was added to 30 μl TnT® SP6 High-Yield Wheat Germ Expression System (Promega Cat. No. L3261) and incubated at 25° C. for 90 min.
For the CBS-HT caspase-3 cleavage reaction, one volume of the expression reaction was incubated with an equal volume of either an E. coli lysate containing caspase-3 or C(3) Lysis Buffer (0.8× FastBreak (Promega Cat. No. V857A), 10 mM DTT, 0.1% CHAPS, 0.8 mg/mL Lysozyme, 3 U/μL RQ1 DNase (Promega Cat. No. M610A)) and incubated for 60 min at room temperature. The E. coli lysate containing caspase-3 was prepared from KRX cells overexpressing recombinant caspase-3. Briefly, KRX cells were transformed with pTS1k:caspase-3(T/S). A starter culture (50 mL, LB Broth) was inoculated from a single colony and grown for 17-22 hrs at 37° C. with shaking (275 rpm). The starter culture was diluted (1:50) into fresh media and growth was continued for an additional 3 hrs. The incubation temperature was then lowered to 25° C. and, after 15 min, expression of caspase-3 was initiated by addition of rhamnose (0.2% final concentration). After 2 hr, cells were collected by centrifugation, re-suspended in 50 mL C(3) Lysis Buffer and incubated at ambient temperature (i.e. 22-24° C.) for 10 min. The lysate was clarified by centrifugation (20,000×g for 20 min at 4° C.) and used as the Caspase-3 source.
Cleavage of CBS-HT by Caspase-3 was detected in two different ways: by SDS-PAGE analysis and luminescence detection. […] After electrophoresis, CA-TAM labeled species were detected by fluorescent imaging (ex:532, Em:580; FIG. 17). For detection via luminescence, 40 μL of the cleavage reaction samples were added to 60 μL buffer (50 mM HEPES (pH 7.5) and 100 μL Bright-Glo assay reagent. Luminescence was detected as previously described (Table 7).

B1: TL-CP233-Caspase 8: TL Ppe fragments 233-543 and 4-232 with caspase-8 site linker … (SEQ ID NOs:57 and 58) (protein)
chain: MTSAILTVIPFHHGFGMMTTLGYFTCGFRVVLMHTFEEKLFLQSLQDYKVESTLLVPTLMAFLAKSALVEKYDLSHLKEIASGGAPLSKEIGEMVKKRFKLNFVRQGYGLTETTSAVLITPKGDAKPGSTGKIVPLHAVKVVDPTTGKILGPNEPGELYFKGPMIMKGYYNNEEATKAIIDNDGWLRSGDIAYYDNDGHFYIVDRLKSLIKYKGYQVAPAEIEGILLQHPYIVDAGVTGIPDEAAGELPAAGVVVQTGKYLNEQIVQDYVASQVSTAKWLRGGVKFLDEIPKGSTGKIDRKVLRQMLEKHTNGSSLETDGSSGDKNILYGPEPFYPLEDGTAGEQMFDALSRYAAIPGCIALTNAHTKENVLYEEFLKLSCRLAESFKKYGLKQNDTIAVCSENSLQFFLPVIASLYLGIIVAPVNDKYIERELIHSLGIVKPRIVFCSKNTFQKVLNVKSKLKSIETIIILDLNEDLGGYQCLNNFISQNSDSNLDVKKFKPYSFNRDDQVASIMFSSGTTGLPKGVMLTHKNIVARFSIAKDPTFGNAINPV
[1]
  detection of Caspase 8 activation by TRAIL: can detect Caspase 8 activation by TRAIL

B2: CBS-HT: CBS variant 1A5 fused to HaloTag, expressed in wheat germ extract (SEQ ID NOs:71 and 72) (protein)
chain: MAEIGTGFPFDPHYVEVLGERMHYVDVGPRDGTPVLFLHGNPTSSYVWRNIIPHVAPTHRCIAPDLIGMGKSDKPDLGYFFDDHVRFMDAFIEALGLEEVVLVIHDWGSALGFHWAKRNPERVKGIAFMEFIRPIPTWDEWPEFARETFQAFRTTDVGRKLIIDQNVFIEGTLPMGVVRPLTEVEMDHYREPFLNPVDREPLWRFPNELPIAGEPANIVALVEEYMDWLHQSPVPKLLFWGTPGVLIPPAEAARLAKSLPNCKAVDIGPGLNLLQEDNPDLIGSEIARWLSTLEISGEPTTEDLYFQSDNAIAMPGSTGKIVPLHAVKVVDPTTGKILGPNEPGELYFKGPMIMKGYYNNEEATKAIIDNDGWLRSGDIAYYDNDGHFYIVDRLKSLIKYKGYQVAPAEIEGILLQHPYIVDAGVTGIPDEAAGELPAAGVVVQTGKYLNEQIVQDYVASQVSIAKWLRGGVKFLDEIPKGSTGKIDRKVLRQMLEKHTNGSDEVDGSLKNILYGPEPFYPLEDGTAGEQMFDALSRYAAIPGCIALTNAHTKENVLYEEFLKLSCRLAESFKKYGLKQNDTIAVCSENSLQFFLPVIASLYLGIIVAPVNDKYIERELIHSLGIVKPRIVFCSKNTFQKVLNVKSKLKSIETIIILDLNEDLGGYQCLNNFISQNSDSNLDVKKFKPYSFNRDDQVASIMFSSGTTGLPKGVMLTHKNIVARFSIAKDPTFGNAINPTSAILTVIPFHHGFGMMTTLGYFTCGFRVVLMHTFEEKLFLQSLQDYKVESTLLVPTLMAFLAKSALVEKYDLSHLKEIASGGAPLSKEIGEMVKKRFKLNFVRQGYGLTETTSAVLITPKGV
[2]; sample AS
  BASAL luminescence: 29,553
  INDUCED luminescence: 5,162,108
  RESPONSE: 175
[2]; sample FT
  BASAL luminescence: 3,170
  INDUCED luminescence: 232,117
  RESPONSE: 73
[2]; sample RESIN
  BASAL luminescence: 11,219
  INDUCED luminescence: 1,635,259
  RESPONSE: 146
[3]; MIN. 0
  BASAL luminescence: 66
  INDUCED luminescence: 1,226
  RESPONSE: 19
[3]; MIN. 1
  BASAL luminescence: 16
  INDUCED luminescence: 1,636
  RESPONSE: 102
[3]; MIN. 2
  BASAL luminescence: 106
  INDUCED luminescence: 2,267
  RESPONSE: 21
[3]; MIN. 3
  BASAL luminescence: 66
  INDUCED luminescence: 2,147
  RESPONSE: 33
[3]; MIN. 4
  BASAL luminescence: 126
  INDUCED luminescence: 2,297
  RESPONSE: 18
[3]; MIN. 5
  BASAL luminescence: 126
  INDUCED luminescence: 2,857
  RESPONSE: 23
[3]; MIN. 6
  BASAL luminescence: 76
  INDUCED luminescence: 3,107
  RESPONSE: 41
[3]; MIN. 7
  BASAL luminescence: 56
  INDUCED luminescence: 3,377
  RESPONSE: 60
[3]; MIN. 8
  BASAL luminescence: 136
  INDUCED luminescence: 3,037
  RESPONSE: 22
[3]; MIN. 9
  BASAL luminescence: 116
  INDUCED luminescence: 3,667
  RESPONSE: 32
[4]
  RESPONSE: 441
[4]; C(3) Lysis Buffer
  BASAL luminescence: 10,494
[4]; E. coli lysate containing caspase-3
  INDUCED luminescence: 4,626,173

From US9290794B2, “Mutant protease biosensors with enhanced detection characteristics” (PROMEGA CORPORATION, priority 2010, dated 2016)
